In the supplement of paper PMC12042874 one finds amyloid nucleation score data, which are given here for 131 substances.

± gives the uncertainty stated by the source.

A short description of the series: amyloid nucleation score (Sup35N fusion, yeast selection) (log enrichment); library NNK3; higher = more nucleation; inactive = no reads after selection. An outline of the steps: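 Nucleation score: DiMSum log enrichment of output over input reads, centred on the mode score of non-aggregating sequences. Only sequences with at least 100 input reads were kept. Reads came from Illumina sequencing of plasmid inserts before and after 7 days of growth at 30°C without adenine and uracil, in psi-negative yeast expressing Sup35N fused to peptides of 20 random codons after 24 hours of induction with 100 μM copper sulfate.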
On to VYSGSFGDSKLLMFWCSITV, for which the amyloid nucleation score entry was “inactive”.

For the substance VYVRVFGLLPDDTTSSF, the amyloid nucleation score entry was “inactive”.

As for WAAWFYASGVRASEGRDYGG, the amyloid nucleation score entry is “inactive”.

With WAEFLCLSSSFFLDM, the amyloid nucleation score entry is “inactive”.

As for WAHLGLDNMYKVLCSRGANA, the amyloid nucleation score entry was “inactive”.

Take WANMTFTELSYIK: the amyloid nucleation score entry is “inactive”.

As to WAYLWLSKNSYGR, the amyloid nucleation score entry is “inactive”.

Take WCCHRAFLYI: the amyloid nucleation score result was “inactive”.

For the substance WCFYFEQDMFHAPY, the amyloid nucleation score is -0.106 ± 0.82.

In the case of WCFYKSLIACGHIVGIEPDW, the amyloid nucleation score is 0.848 ± 0.15.

For WCFYKSRLFVVQVVVLYNRF, the amyloid nucleation score result is “inactive”.

Turning to WCRCSFVVLHSVVVCSFGTR, the amyloid nucleation score was -0.074 ± 0.69.

For the substance WDDEFVWSGINN, the amyloid nucleation score entry was “inactive”.

For the substance WDFGPEVLSE, the amyloid nucleation score entry was “inactive”.

As to WDLITL, the amyloid nucleation score result was “inactive”.

Regarding WDNITRNWRSCPHQMSLRYL, the amyloid nucleation score is -0.148 ± 1.

On to WDPECSTDVISEGRGRYTEW, for which the amyloid nucleation score result was “inactive”.

As to WDPGFFWIMAVARFTIACQY, the amyloid nucleation score result was “inactive”.

As to WDYILGFGHVSQRARMESFD, the amyloid nucleation score entry is “inactive”.

With WFDSAPSPLDLRVHLFNVKV, the amyloid nucleation score entry is “inactive”.

Consider WFFETQLSLWWVNGQDLAEV, for which the amyloid nucleation score entry is “inactive”.

On to WFFFDIAWRSPTIRRWTSSM, for which the amyloid nucleation score entry is “inactive”.

In the case of WFTVHLIVCSVRRLDSFVLP, the amyloid nucleation score entry is “inactive”.

WFVRIIQLIT: the amyloid nucleation score entry is “inactive”.

With WFVYALMNRLEYSKAYFPML, the amyloid nucleation score result is “inactive”.

With WGCYSWTMVRS, the amyloid nucleation score stood at 1.33 ± 0.16.

On to WGLWSVSVCWMRLFPGY, for which the amyloid nucleation score entry was “inactive”.

With WGMSRLFVYFPVILLMISLT, the amyloid nucleation score entry was “inactive”.

With WGNISGSA, the amyloid nucleation score entry is “inactive”.

For the substance WGSMMSWQVKFVSILNPLPR, the amyloid nucleation score entry was “inactive”.

Take WHTLLDCGVGEFWS: the amyloid nucleation score entry is “inactive”.

Substance WHVEIIVHNMSFSILKNVGR showed an amyloid nucleation score of 1.65 ± 0.1.

For WIFENMSYIRKICQWCKSYV, the amyloid nucleation score entry is “inactive”.

As for WILYSMMQLSMMFKSMYSVT, the amyloid nucleation score result is “inactive”.

Consider WIMISKSSMPMTPDAVQAMG, for which the amyloid nucleation score entry was “inactive”.

Regarding WINTRLGCPDTNRGSTRVTL, the amyloid nucleation score entry is “inactive”.

As to WIRDFYEFAEWSSDTCGIRI, the amyloid nucleation score entry was “inactive”.

In the case of WISIVQW, the amyloid nucleation score entry was “inactive”.

On to WIVVDKSNQCGLGYVLWYNF, for which the amyloid nucleation score entry is “inactive”.

WIWSGMYSNWPNSAPVNIR: the amyloid nucleation score entry is “inactive”.

Take WKCVLMTSATHMPQYPHGCG: the amyloid nucleation score result was “inactive”.

On to WKFAGHEALWFLKIIEMLR, for which the amyloid nucleation score result is “inactive”.

For the substance WKGWSFNLLLRGILQAIIAS, the amyloid nucleation score entry is “inactive”.

As to WKPCS, the amyloid nucleation score entry is “inactive”.

In the case of WKPGRYSTKAPQLEVPERHV, the amyloid nucleation score result was “inactive”.

As for WKRNI, the amyloid nucleation score was found to be 0.172 ± 0.71.

Take WKYGKLISPFVQDVVSLSIK: the amyloid nucleation score result was “inactive”.

Turning to WLHFCHSAPSEYFVIMRMCK, the amyloid nucleation score result was “inactive”.

Turning to WLNEM, the amyloid nucleation score entry was “inactive”.

Regarding WLSNREVFKMYIRLVQLAWL, the amyloid nucleation score result is “inactive”.

As for WMCVLCCSVRNIGKTYKSCL, the amyloid nucleation score entry was “inactive”.

In the case of WMFSRL, the amyloid nucleation score result was “inactive”.

As for WMMNIDYTNSW, the amyloid nucleation score entry was “inactive”.

WNFYGWRVLSHRRTGSVHRL returned an amyloid nucleation score of -0.847 ± 1.4.

Turning to WNLSSFININPSYYSDTWHG, the amyloid nucleation score came out at 2.08 ± 0.071.

Consider WNLVPSHMFFV, for which the amyloid nucleation score result is “inactive”.

With WNYGTALMLRQIGSGFICIY, the amyloid nucleation score result was “inactive”.

Regarding WPTFDCRRM, the amyloid nucleation score entry was “inactive”.

For WQITTRTIDRPHYKHPGVPL, the amyloid nucleation score entry was “inactive”.

With WQIWDRVQTRKFHGEFTYMR, the amyloid nucleation score result was “inactive”.

Take WQPFD: the amyloid nucleation score entry is “inactive”.

Regarding WRAADDQTWGLVRCLSI, the amyloid nucleation score came out at 0.57 ± 0.17.

Consider WRCLYYMQAYSSN, for which the amyloid nucleation score entry was “inactive”.

WRFRIVR: the amyloid nucleation score entry is “inactive”.

For the substance WRFYGYI, the amyloid nucleation score entry was “inactive”.

As for WRSCSKDHLCFQSPVMPLSR, the amyloid nucleation score turned out to be 0.214 ± 0.42.

For WRYYRAYKVITHIKFLFFTE, the amyloid nucleation score entry was “inactive”.

For the substance WSAIVDSWCDSSRRVEIVVR, the amyloid nucleation score entry is “inactive”.

For WSFNGSNECISRLDINLNVF, the amyloid nucleation score is 0.407 ± 0.15.

Turning to WSFVPRGIVVSRRLSVYTRT, the amyloid nucleation score result is “inactive”.

Consider WSLSYHRKMIFGDTCVTYIG, for which the amyloid nucleation score entry was “inactive”.

On to WSMSDFAALIGWIDALGLEL, for which the amyloid nucleation score result is “inactive”.

On to WSNNMWYVRYSDFCISCLLV, for which the amyloid nucleation score entry is “inactive”.

In turn, WSRSSADRVII displayed an amyloid nucleation score of -0.471 ± 1.5.

For the substance WSTESWTYPGIRMCFWGGEG, the amyloid nucleation score is -0.755 ± 1.4.

As to WTGMPRTGWDGPRYKALSRS, the amyloid nucleation score entry is “inactive”.

As for WTNSSQHLSESLWYVDYCQG, the amyloid nucleation score entry is “inactive”.

The substance WTRHGSEFVCYNSGHLWVFD had an amyloid nucleation score of 0.164 ± 0.31.

As for WTSQVMRMDKTQVTGRDRVA, the amyloid nucleation score entry is “inactive”.

For the substance WTSSVILRPSMCLLGWYMLV, the amyloid nucleation score result is “inactive”.

Take WTTYLWVAGVLA: the amyloid nucleation score entry was “inactive”.

In the case of WTWGKAYDAMFLIVTFFCIF, the amyloid nucleation score result was “inactive”.

The substance WTYIWCAN displayed an amyloid nucleation score of 1.75 ± 0.11.

Turning to WVFLNRAQQHSNVLPSQGLV, the amyloid nucleation score entry was “inactive”.

On to WVFSSNVRKYMRALRRRYSD, for which the amyloid nucleation score entry is “inactive”.

WVGNTVKHKLGLVGNCGSCA showed an amyloid nucleation score of -0.73 ± 1.9.

Take WVIRELTWITWIVLADLS: the amyloid nucleation score entry was “inactive”.

Turning to WVPKFYRLGSDTWSSVSLDV, the amyloid nucleation score result is “inactive”.

Take WVRAA: the amyloid nucleation score result is “inactive”.

On to WVRCVRQGVYLRYVLLLCEI, for which the amyloid nucleation score result was “inactive”.

WVWIVSMVRRGSEAFEALEM: the amyloid nucleation score entry was “inactive”.

Regarding WWCMNRCEDAASINGIVARK, the amyloid nucleation score result is “inactive”.

The substance WWFLGGRSRGDRGILMVDVA gave an amyloid nucleation score of 0.214 ± 0.53.

For WWGNRAVVYIILLHEPGAWR, the amyloid nucleation score result is “inactive”.

With WWTNLATPAKNQS, the amyloid nucleation score entry is “inactive”.

In the case of WYKNYASTRIPMIEWKRILT, the amyloid nucleation score result was “inactive”.

For the substance WYLMCWCCLKVPVAQLM, the amyloid nucleation score amounted to 0.671 ± 0.19.

Turning to WYMCLGSLMSIVF, the amyloid nucleation score entry is “inactive”.

Consider WYMECTVACSSIICSWKWGL, for which the amyloid nucleation score result is “inactive”.

As for WYMHTTLD, the amyloid nucleation score result is “inactive”.

With WYVCRSGVCGHALIALATRR, the amyloid nucleation score was -0.483 ± 0.61.

For the substance WYVYKFCEPVGDRGRFVWCL, the amyloid nucleation score is -0.212 ± 0.84.

Substance YAFGGQLFAFVLRNENIFSG showed an amyloid nucleation score of 1.37 ± 0.085.

With YAFLLYY, the amyloid nucleation score result was “inactive”.

With YAFVCSDV, the amyloid nucleation score entry is “inactive”.

Consider YAHLWKNSEAGWSGKYSILW, for which the amyloid nucleation score entry was “inactive”.

In the case of YALLKHSTWYRVGQF, the amyloid nucleation score result was “inactive”.

Take YANWLVLILYG: the amyloid nucleation score was determined as 1.32 ± 0.11.

Take YARYNTLVLSAKPPLLYDSW: the amyloid nucleation score entry is “inactive”.

For the substance YASDWVRRPGRN, the amyloid nucleation score entry is “inactive”.

Substance YAVCSSLKYLIVESSKLTSV had an amyloid nucleation score of 0.038 ± 0.36.

YCAFLTNPHVLDFSMNCCKL had an amyloid nucleation score of 2.29 ± 0.059.

Turning to YCSLLSDERGSSVTGILAVF, the amyloid nucleation score entry was “inactive”.

On to YCYFFLGLCTYKSQYNGLRL, for which the amyloid nucleation score entry was “inactive”.

As to YDLGVAVLNRNSKRSC, the amyloid nucleation score result was “inactive”.

As to YDRGLISWTCVRVSS, the amyloid nucleation score entry was “inactive”.

Regarding YDTLDTKCAVADKEIFCRIP, the amyloid nucleation score entry was “inactive”.

Regarding YEAYV, the amyloid nucleation score result is “inactive”.

YELFS: the amyloid nucleation score is 0.922 ± 0.11.

With YENCSMYYSTTGIPAMCEIT, the amyloid nucleation score entry is “inactive”.

Regarding YEPTSAK, the amyloid nucleation score entry was “inactive”.

On to YESRGEGVMPSTQLWMSRLG, for which the amyloid nucleation score result is “inactive”.

As to YFCSFREVRSHGQTLR, the amyloid nucleation score result is “inactive”.

As for YFEYRPKMHHYSLCYMGEFS, the amyloid nucleation score entry is “inactive”.

On to YFGGRM, for which the amyloid nucleation score entry is “inactive”.

On to YFMIDRPALRLVDKKCGSRS, for which the amyloid nucleation score entry was “inactive”.

The substance YFPSSCCNDFVFSSLEFQSM yielded an amyloid nucleation score of 2.12 ± 0.055.

With YFRFRSFLVLSDM, the amyloid nucleation score result was “inactive”.

YFRYRSDVIAYISVIIGNLV: the amyloid nucleation score entry was “inactive”.

With YFTSEPLSAPSQWGRVKGSA, the amyloid nucleation score entry was “inactive”.

Regarding YFTYGRQCMVVLDCLVDRRG, the amyloid nucleation score entry was “inactive”.
